Data set [1] concerns the target CopY, repressor of the Streptococcus pneumoniae cop operon (Streptococcus pneumoniae TIGR4). Kind of data set: SEC-MALS; WTC-010S5 column, 50 mM Tris-HCl pH 7.5, 100 mM NaCl, 5% glycerol, with 100 µM zinc, 25°C. Background: In gel filtration, larger molecules generally elute earlier.
Data set [2] shares this target. Nature of the data set: SEC-MALS; WTC-010S5 column, 50 mM Tris-HCl pH 7.5, 100 mM NaCl, 5% glycerol, without zinc (apo CopY), 25°C.
In data set [3] the target is T1, CopY (copper-responsive cop operon repressor) (Streptococcus pneumoniae TIGR4, UniProt A0ACD7PQP7 1-131). Nature of the data set: fluorescence polarization; apo, no metal; FP: 50 mM Tris-HCl pH 7.5, 100 mM NaCl, 5% glycerol, Chelex-treated, 10 nM DNA, temperature not stated; EMSA: TBS, 20 ul, 4 C, 50 uM CopY, 50 ng DNA, 6% TBE gel, 0.5x TB running buffer without EDTA. Particulars: protein: recombinant; tags: pMCSG7 vector construct (tag not given); chain copies: 2; label: FAM on strand 1; blunt. In general terms: Fluorescence polarisation rises when a labelled molecule tumbles more slowly, as on binding a larger partner.

Data set [4] concerns the target CopY, zinc-bound (Streptococcus pneumoniae TIGR4, UniProt A0ACD7PQP7 1-131). Nature of the data set: fluorescence polarization; 10 uM Zn2+; FP: 50 mM Tris-HCl pH 7.5, 100 mM NaCl, 5% glycerol, Chelex-treated, 10 nM DNA, temperature not stated; EMSA: TBS, 20 ul, 4 C, 50 uM CopY, 50 ng DNA, 6% TBE gel, 0.5x TB running buffer without EDTA. Particulars: protein: recombinant; tags: pMCSG7 vector construct (tag not given); chain copies: 4; label: FAM on strand 1; blunt.

Data set [5] addresses T1, CopY (copper-responsive cop operon …). Kind of data set: fluorescence polarization; apo; described as nonspecific binding, linear; FP: 50 mM Tris-HCl pH 7.5, 100 mM NaCl, 5% glycerol, Chelex-treated, 10 nM DNA, temperature not stated; EMSA: TBS, 20 ul, 4 C, 50 uM CopY, 50 ng DNA, 6% TBE gel, 0.5x TB running buffer without EDTA. Particulars: protein: recombinant; tags: pMCSG7 vector construct (tag not given); chain copies: 2; label: FAM on strand 1; blunt.

Data set [6] has the same target. Kind of data set: EMSA; no metal; 50 uM CopY; FP: 50 mM Tris-HCl pH 7.5, 100 mM NaCl, 5% glycerol, Chelex-treated, 10 nM DNA, temperature not stated; EMSA: TBS, 20 ul, 4 C, 50 uM CopY, 50 ng DNA, 6% TBE gel, 0.5x TB running buffer without EDTA. Particulars: protein: recombinant; tags: pMCSG7 vector construct (tag not given); chain copies: 2; label: 3' biotin on strand 1; blunt. In general terms: Mobility shift assays separate free from complexed probe on a gel.

With “CopY, repressor of the Streptococcus pneumoniae cop operon (natural protein)”, the stoichiometry N (commonly the number of molecules, sites or subunits per partner or assembly) in data set [1] turned out to be 4; in data set [2], 2.

B1: pSP_0727 cop promoter, FAM (dsDNA)
DNA 1: TCTATAATTGACAAATGTAGATTTTAAGAGTATACTGATGAGTGTAATTGACAAATG
DNA 2: CATTTGTCAATTACACTCATCAGTATACTCTTAAAATCTACATTTGTCAATTATAGA
Take B1: the equilibrium dissociation constant (Kd) – broadly, the free concentration of one partner at which half of the binding sites on the other are occupied at equilibrium, for simple one-to-one binding – in data set [3] came to 4240 ± 780 nM; in data set [4] it was 520 ± 130 nM.

B2: pSP_1541 promoter, FAM (dsDNA)
DNA 1: GCGAACCTCACTTACCCCTTGCAAAGTCTTGGGGTCATTAGA
DNA 2: TCTAATGACCCCAAGACTTTGCAAGGGGTAAGTGAGGTTCGC
For the molecule B2, the binding result in data set [5] is given as “no binding”.

B3: pSP_1541 promoter, biotinylated (dsDNA)
DNA 1: GCGAACCTCACTTACCCCTTGCAAAGTCTTGGGGTCATTAGA
DNA 2: TCTAATGACCCCAAGACTTTGCAAGGGGTAAGTGAGGTTCGC
Consider B3, for which the binding result in data set [6] was “no binding”.

The values are drawn from paper PMC5646241, “Copper Chaperone CupA and Zinc Control CopY Regulation of the Pneumococcal cop Operon”.
